Reference: publication PMC10361598
Like-named read-outs stand apart in the source and are kept apart here.

Columns and labels:
[1] = biological target: CXCR4^QTY-Fc (not stated | rabbit); test: graphene field-effect transistor array
[2] = biological target: CXCR4^QTY-Fc (not stated | rabbit); test: graphene field-effect transistor array; remark: listed apart in the source

Q: Which Kd [1] does the source give for “recombinant HIV coat glycoprotein gp_(41–120)” here?
A: 19.1 nM

Q: And the Kd [2]?
A: 5.8 nM
